The test system of data set [1] is AsPC-1 cells. The data set is described as follows: Gemcitabine co-treatment, MTT cell death assay. The following applies: Homo sapiens, ASPC1, 72 h. The class given is cell-based. As for the experimental part: Gemcitabine co-treatment: 10,000 AsPC-1 cells/well were seeded into 96 well flat bottom plate and incubated overnight at in a humidified incubator at 37° C. with 5% CO2. Media in wells were replaced by serum free RPMI medium containing 2.33 μM GSM-192 or PBS and 0.05, 0.1, 0.5, 1, 5, 10, 40 and 80-μM gemcitabine. The plates were further incubated for 72 hours in a humidified incubator at 37° C. with 5% CO2. MTT solutions (M5655 SIGMA) was added at 10% of total culture volume (0.5 mg/ml MTT in RPMI/IMDM without phenol red) and after 3 hours incubation, plate was washed with PBS and solubilized using MTT solvent (0.1 N HCl in anhydrous isopropanol). The read out was obtained at […]. Cell death data was plotted as a function of the log of Gemcitabine concentration and fitted on a variable slope sigmoidal regression model (GraphPad prism 8.3.0). Further, an average of IC50 from 3 experimental repeats and corresponding standard deviation was calculated.
Background: Tetrazolium dyes change colour on reduction, which living cells bring about.

The next data set concerns FasL in AsPC-1 cells. The data set is described as follows: Western blot of FasL expression in cell lysates. The class given is cell-based, human. The following applies: AsPC-1 cell lysates, 24 hours, sub lethal concentrations. As for the experimental part: Western Blots: Treated cells were lysed with RIPA buffer containing protease inhibitors and shaken intermittently while stored in ice for 30 min. The debris was removed by centrifugation at 14,000×g and supernatant was used for BCA protein determination assay. Alternatively, culture supernatants were concentrated at least 10 times using 0.2 μm centricons. Once normalized to equal protein content, sample buffer was added and heated for 3 minutes at 95° C. The denatured samples were centrifuged for 5 min at 14,000×g before 25 μL was loaded onto SDS page gel and standard blotting procedures were followed (General Protocol for Western Blotting, BioRad bulletin 6376). Primary Abs used were MMP-7 (abcam, ab5706), Fas-L (abcam, ab15285), α Tubulin Ab (sc31779).
Anti LOXL-2 (Lysyl Oxidase like 2) mAb33, produced in a similar pipeline was used as an isotype control. […] To test for molecular markers of apoptosis, Fas ligand expression was analysed by Western blot analysis. AsPC-1 cells were treated with GSM-192 Fab for 24 hours at sub lethal concentrations.
Background: In western blotting, separated proteins are transferred to a membrane and probed.

For the next data set, the target named is MMP-9 (Homo sapiens, UniProt P14780). The data set is described as follows: Enzymatic activity of related MMPs (fluorogenic peptide). The data set is classed as biochemical. The following applies: in vitro. As for the experimental part:
(§1) MMP-7 enzymatic kinetic assay: The enzymatic activity of MMP-7 in the presence of GSM-192 Fab was measured at 37° C. by monitoring the hydrolysis of fluorogenic peptide Mca-Pro-Leu-Gly-Leu-Dpa-Ala-Arg-NH2 (SEQ ID NO: 10) at λex=340 nm and […] as described previously^30. A range of different concentrations of GSM-192 Fab (0-200 nM) were incubated with 10 nM of MMP-7 in 50 mM Tris-HCl buffer (pH 7.5 at 37° C.), 100 mM NaCl, 5 mM CaCl2, and 0.05% Brij-35 for 2 h at 37° C. The enzymatic reaction was initiated by addition of the fluorogenic peptide to a final concentration of 10 μM. Fluorescence was recorded immediately and continuously for 30 min.
(§2) Remarkably, considering that the immunization booster also included the common zinc motif, the antibody is fully selective for MMP-7. The effect of GSM-192 Fab fragment on the enzymatic activity of human MMP-7 was examined in vitro using a short fluorogenic peptide according to a standard protocol. The enzymatic activity of recombinant active MMP-7 was measured in the presence of increasing concentrations of the Fab fragment of GSM-192. […] Simultaneously the effect of the antibody on catalytic activity of related MMPs was measured.

In another data set the target is MMP-14 (Homo sapiens, UniProt P50281). The data set is described as above. The following applies: in vitro. The data set is classed as biochemical. As for the experimental part:
as §1, §2

For the next data set, the target named is MMP-12 (Homo sapiens, UniProt P39900). The description is as above. The following applies: in vitro. The class given is biochemical. As for the experimental part: as §1, §2
MMP-12, sequence (P39900 106-470): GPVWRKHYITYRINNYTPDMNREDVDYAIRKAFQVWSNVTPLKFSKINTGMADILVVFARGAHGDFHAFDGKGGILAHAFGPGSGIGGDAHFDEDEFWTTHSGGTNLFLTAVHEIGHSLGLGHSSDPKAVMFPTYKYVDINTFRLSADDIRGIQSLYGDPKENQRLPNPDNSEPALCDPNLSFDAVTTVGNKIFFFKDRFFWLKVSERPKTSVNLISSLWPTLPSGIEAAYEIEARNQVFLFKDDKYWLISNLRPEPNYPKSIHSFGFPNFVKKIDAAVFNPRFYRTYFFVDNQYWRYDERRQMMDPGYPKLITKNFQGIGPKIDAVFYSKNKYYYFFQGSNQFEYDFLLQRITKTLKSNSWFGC
In data set [2] the test system is AsPC-1 cells. The data set is described as follows: FACS Annexin-V apoptosis detection assay. The class given is cell-based, human. The following applies: AsPC-1, 24 h, increasing dose. The procedure: FACS Annexin-V apoptosis detection assay: 70% confluent cells in 6 cm plates were treated with sterile GSM-192 Fab fragment/control anti LOXL-2 Fab fragment for 24 h and prepared for FACS using the Annexin-V FITC apoptosis detection kit (E Biosciences 88-8005-72) as described previously^53. The FACS acquisition was done using FACS LSR-II machine in Cell Quant software (Becton Dickinson) and further analysis on FlowJo software (Treestar, Inc., San Carlos, Calif.).

Entries after “also recorded” stand apart in the source; their conditions may differ. Like-named read-outs stand apart in the source and are kept apart here.

Broadly, the IC50 is the concentration that gives 50% inhibition.

MMP-9, sequence (P14780 94-707, species assumed): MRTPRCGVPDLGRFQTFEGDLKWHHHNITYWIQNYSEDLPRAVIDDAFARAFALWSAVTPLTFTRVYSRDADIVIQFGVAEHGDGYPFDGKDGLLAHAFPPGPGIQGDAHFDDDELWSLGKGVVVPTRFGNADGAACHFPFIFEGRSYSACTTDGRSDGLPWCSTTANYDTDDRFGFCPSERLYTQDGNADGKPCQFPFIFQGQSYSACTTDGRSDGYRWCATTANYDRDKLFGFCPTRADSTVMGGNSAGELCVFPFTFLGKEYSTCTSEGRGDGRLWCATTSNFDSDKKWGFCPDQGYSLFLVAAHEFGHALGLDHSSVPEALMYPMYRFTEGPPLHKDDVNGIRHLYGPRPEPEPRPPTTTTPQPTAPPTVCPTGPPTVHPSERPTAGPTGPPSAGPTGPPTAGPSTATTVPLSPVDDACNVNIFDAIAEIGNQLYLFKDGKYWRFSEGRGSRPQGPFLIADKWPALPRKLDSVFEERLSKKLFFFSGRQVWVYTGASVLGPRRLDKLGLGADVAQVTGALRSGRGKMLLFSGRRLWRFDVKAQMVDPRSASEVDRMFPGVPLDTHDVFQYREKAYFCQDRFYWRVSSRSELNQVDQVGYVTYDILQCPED

On to `Nc1ccn([C@@H]2O[C@H](CO)[C@@H](O)C2(F)F)c(=O)n1` [GEM, gemcitabine], for which the IC50 in the data set on AsPC-1 cells [1] (GEM+PBS group, 72 hours) was determined as 127 ± 40.5 nM; in the data set on AsPC-1 cells [1] (co-treatment with 2.33 uM GSM-192, 72 hours, read-out: IC50 of GEM), 14.2 ± 1.52 nM.

B1: GSM-192 Fab: Fab fragment of GSM-192 obtained by papain digestion (antibody, V domains shown)
VL: DIVTQSPASLAVSLGQRATISCRASESFDSYGNTFVHWYQQKPGQPPKLLIYLVSNLESGVPAGFRGRGSRTDFTLTIDPVEADDAATYYCQQNNEDPYTFGGGTKLEIKRA
VH: EVQLQQSGPELVKPGASVKIPCKASGYTFTDYNMDWMKQSHGKSLEWIGHINPNNGGTFYNQKFKDKATFIVDKSSNTAYMELRSLTSEDTAVYFCARGGGLRRGPFAYWGQGTLVTVS
Consider B1, for which the FasL expression entry with FasL in AsPC-1 cells was “increase of Fas ligand (FasL) expression”; with FasL in AsPC-1 cells (listed as anti MMP-7 Fab), “overall increase in FasL levels”. The “effect on catalytic activity of MMP-9” value with MMP-9 was “not affected”. Also, the “effect on catalytic activity of MMP-14” value in the data set with MMP-14 was “only negligibly affected”. Further, the “effect on catalytic activity of MMP-12” value with MMP-12 is recorded as “not affected”. In addition, the “Annexin V related apoptosis” value in the data set on AsPC-1 cells [2] is “induce cell death via apoptosis; also recorded: increased Annexin V related apoptosis”.

(Values after patent US12291578B2, “Anti-matrix metalloproteinase 7 (MMP-7) inhibitory antibody and uses thereof” (Yeda Research and Development Co. Ltd., priority 2019, dated 2025).)
